According to PMC3962490, “The Yeast Ess1 Prolyl Isomerase Controls Swi6 and Whi5 Nuclear Localization” (G3: Genes|Genomes|Genetics, 2014):

Biological target: all the peptides, including the phosphorylated CTD peptide
Assay: BLI; Octet RED, 24°; N-terminally biotinylated peptides immobilised on streptavidin biosensors; Ess1 in solution (3, 10, 30 μM); 20 mM Tris-HCl pH 8.0, 1 mg/mL BSA; no-peptide sensor subtracted; apparent dissociation constants (Kapp) from kinetic and equilibrium data, considering only the predominant faster-dissociating signal; for unphosphorylated peptides Kapp estimated from the signal at 30 μM Ess1

kon: 17500 to 27100 M⁻¹ s⁻¹
B1: Recombinant S. cerevisiae Ess1 protein (enzyme)
chain: MPSDVASRTGLPTPWTVRYSKSKKREYFFNPETKHSQWEEPEGTNKDQLHKHLRDHPVRVRCLHILIKHKDSRRPASHRSENITISKQDATDELKTLITRLDDDSKTNSFEALAKERSDCSSYKRGGDLGWFGRGEMQPSFEDAAFQLKVGEVSDIVESGSGVHVIKRVG
